The values that follow come from article doi:10.1101/501098 (bioRxiv, 2018).

The experiment deals with Histone H4 (Xenopus laevis), in the nucleosome (Xenopus laevis, UniProt P62799 2-103). In words: cryo-EM structure.

B1: Dot1L(2-416) (domain or fragment)
chain: GEKLELRLKSPVGAEPAVYPWPLPVYDKHHDAAHEIIETIRWVCEEIPDLKLAMENYVLIDYDTKSFESMQRLCDKYNRAIDSIHQLWKGTTQPMKLNTRPSTGLLRHILQQVYNHSVTDPEKLNNYEPFSPEVYGETSFDLVAQMIDEIKMTDDDLFVDLGSGVGQVVLQVAAATNCKHHYGVEKADIPAKYAETMDREFRKWMKWYGKKHAEYTLERGDFLSEEWRERIANTSVIFVNNFAFGPEVDHQLKERFANMKEGGRIVSSKPFAPLNFRINSRNLSDIGTIMRVVELSPLKGSVSWTGKPVSYYLHTIDRTILENYFSSLKNPKLREEQEAARRRQQRESKSNAATPTKGPEGKVAGPADAPMDSGAEEEKAGAATVKKPSPSKARKKKLNKKGRKMAGRKRGRPKK
Consider B1, for which the binding result is “binds”.
